{"source": "patent US6967100B2", "about": "“Pancreatic islet cell growth factors” (The Walter and Eliza Hall Institute of Medical Research, priority 2000, dated 2005)", "molecules": {"B1": {"name": "BMP 4/7: BMP 4 and BMP 7 heterodimer, recombinant mouse, CHO cell conditioned medium (protein, UniProt P21275 293-408; P23359 292-430, looked up)", "Bone morphogenetic protein 4": "SPKHHPQRSRKKNKNCRRHSLYVDFSDVGWNDWIVAPPGYQAFYCHGDCPFPLADHLNSTNHAIVQTLVNSVNSSIPKACCVPTELSAISMLYLDEYDKVVLKNYQEMVVEGCGCR", "Bone morphogenetic protein 7": "STGGKQRSQNRSKTPKNQEALRMASVAENSSSDQRQACKKHELYVSFRDLGWQDWIIAPEGYAAYYCEGECAFPLNSYMNATNHAIVQTLVHFINPDTVPKPCCAPTQLNAISVLYFDDSSNVILKKYRNMVVRACGCH", "modifications": "heterodimer", "notes": "BMP 4 and BMP 7 heterodimer, recombinant mouse, CHO cell conditioned medium"}, "B2": {"name": "BMP 4/4: BMP 4 homodimer, epitope-tagged recombinant mouse BMP in CHO cell conditioned medium (protein, UniProt P21275 293-408, looked up)", "Bone morphogenetic protein 4": "B1 Bone morphogenetic protein 4", "modifications": "epitope tag"}, "B3": {"name": "BMP 4/6: BMP 4 and BMP 6 heterodimer, recombinant mouse, CHO cell conditioned medium (protein, UniProt P21275 293-408; P20722 372-510, looked up)", "Bone morphogenetic protein 4": "B1 Bone morphogenetic protein 4", "Bone morphogenetic protein 6": "SASSRRRQQSRNRSTQSQDVSRGSGSSDYNGSELKTACKKHELYVSFQDLGWQDWIIAPKGYAANYCDGECSFPLNAHMNATNHAIVQTLVHLMNPEYVPKPCCAPTKLNAISVLYFDDNSNVILKKYRNMVVRACGCH", "modifications": "heterodimer", "notes": "BMP 4 and BMP 6 heterodimer, recombinant mouse, CHO cell conditioned medium"}, "B4": {"name": "BMP 7/7: BMP 7 homodimer, epitope-tagged recombinant mouse BMP in CHO cell conditioned medium (protein, UniProt P23359 292-430, looked up)", "Bone morphogenetic protein 7": "B1 Bone morphogenetic protein 7", "modifications": "epitope tag"}, "B5": {"name": "KGF: candidate growth factor (protein, UniProt P21781 32-194, looked up)", "Fibroblast growth factor 7": "CNDMTPEQMATNVNCSSPERHTRSYDYMEGGDIRVRRLFCRTQWYLRIDKRGKVKGTQEMKNNYNIMEIRTVAVGIVAIKGVESEFYLAMNKEGKLYAKKECNEDCNFKELILENHYNTYASAKWTHNGGEMFVALNQKGIPVRGKKTKKEQKTAHFLPMAIT"}, "B6": {"name": "betacellulin: candidate growth factor (protein, UniProt P35070 32-111, looked up)", "Betacellulin": "DGNSTRSPETNGLLCGDPEENCAATTTQSKRKGHFSRCPKQYKHYCIKGRCRFVVAEQTPSCVCDEGYIGARCERVDLFY"}, "B7": {"name": "BMP 6/6: recombinant mouse BMP 6, myc epitope tagged, CHO cell conditioned medium; called BMP 6 in b118 (protein, UniProt P20722 372-510, looked up)", "Bone morphogenetic protein 6": "B3 Bone morphogenetic protein 6", "modifications": "myc epitope tag", "notes": "called BMP 6"}}}
{"test_system": "C2C12 myoblasts", "assay": "C2C12 cell BMP bioassay (transformation of myoblasts into alkaline phosphatase-containing osteoblasts)", "format": "cell-based", "conditions": "FIG. 3; heterodimer versus homodimer", "method": "(§1) BMP activity was measured in the C2C12 cell bioassay, in which BMPs transform C2C12 myoblasts into alkaline phosphatase-containing osteoblasts (Katagiri et al., 1994). Briefly, CHO cells were plated at a density of around 5×10^6 per 75 cm^2 flask in serum-free HYBRIDOMA medium (Gibco BRL Life Technology) (SFHM) containing 10% v/v FCS. Once the cells had reached confluency, the medium was removed, the cells washed twice with SFHM and 10 ml of SFHM then added to each flask. The cells were cultured for four days and the conditioned medium collected, filtered through a 2 micron filter and stored at 4° C.\n(§2) 2×10^3 C2C12 cells were plated into each well of a 96-well tissue culture plate in DME/10% v/v FCS. Twenty-four hours later, the medium was removed and replaced with 100 μl SFHM/1% v/v FCS. 50 μl of each conditioned medium was added in duplicate to the top row of the 96-well plate and the volume of these wells then made up to 200 μl. Using a multi-channel pipette, 100 μl from each well was then serially transferred to subsequent rows thus diluting the conditioned medium 2-fold with each transfer. After incubation for five days, the media were discarded and the cells washed with normal saline. Cells were lysed for 10 mins at room temperature (RT) in 100 μl 0.5% v/v TritonX-100 and 100 mM diethanolamine (pH 9.5) in normal saline. To each well was then added an aqueous solution containing 10 mM diethanolamine, 1 mg/ml p-nitrophenyl phosphate (PNPP) and 0.5 mM MgCl2. The yellow reaction product catalyzed by alkaline phosphatase was allowed to develop for 10-60 mins before reading absorption at 415 nm."}
{"molecule": "B1", "relative BMP bioactivity": "more active than 4/4 homodomers"}
{"test_system": "C2C12 myoblasts", "assay": "C2C12 cell BMP bioassay (transformation of myoblasts into alkaline phosphatase-containing osteoblasts)", "format": "cell-based", "conditions": "conditioned medium of stably transfected CHO cells, compared to medium of untransfected CHO cells", "method": "as §1, §2"}
{"molecule": "B2", "BMP activity of conditioned medium (alkaline phosphatase activity of C2C12 cells)": "significant activity"}
{"molecule": "B1", "BMP activity of conditioned medium (alkaline phosphatase activity of C2C12 cells)": "significant activity"}
{"molecule": "B3", "BMP activity of conditioned medium (alkaline phosphatase activity of C2C12 cells)": "significant activity"}
{"molecule": "B4", "BMP activity of conditioned medium (alkaline phosphatase activity of C2C12 cells)": "significant activity"}
{"test_system": "13.5 dpc fetal mouse pancreas cells", "assay": "Colony formation of 13.5 dpc fetal mouse pancreas cells cultured with BMPs and laminin-1", "format": "cell-based", "conditions": "13.5 dpc fetal pancreas cells", "method": "(§3) Dissociated fetal pancreas cells were prepared from 13.5 dpc CBA mice. Pregnant mice at 13.5 dpc were killed by cervical dislocation and fetuses collected into ice cold sterile mouse tonicity phosphate-buffered saline (MTPBS). Fetal pancreata were harvested under an Olympus dissection microscope into RPMI 1640 medium and dissociated in a shaking water bath at 37° C. for 11 mins in Ca^2+/Mg^2+-free PBS containing 0.5% v/v trypsin/EDTA as described for testis by Bucci et al. (1986). After dissociation, trypsin was inactivated by addition of 8% w/v bovine serum albumin (BSA, fraction V) (Sigma, St. Louis, USA). The tissue was aspirated several times in a pipette, passed through a 27 gauge needle to make a single cell suspension and then rinsed in 10 μg/ml DNAse I (Promega, Madison, USA) in RPMI 1640 for 10 mins to reduce cellular aggregates. Cell suspensions were filtered through a 70-100 μm steel mesh, centrifuged at 400×g for 5 mins and the supernatant discarded. The cell pellet was resuspended in HYBRIDOMA medium and stored on ice. Cells were counted under a haemocytometer and viability was determined by exclusion of 0.2% v/v trypan blue dye. Pancreatic cells were plated in 8 chamber slides (Nunc) at 1.5×10^4 cells/well in 0.3 ml HYBRIDOMA medium 500 UI/ml penicillin and 500 μg/ml streptomycin. The cells were cultured in 10% v/v CO2, 90% v/v air at 37° C. with 100% humidity for four days in the presence of factors such as laminin-1 and BMPs.\n(§4) After four days in culture, cells were washed twice with warm MT-PBS and fixed with a 4% v/v paraformaldehye for 10 mins. In some cases, 100 μM BrdU was added to label proliferating cells 12 hours before fixation and detection with monoclonal antibody to BrdU and FITC-labelled rabbit anti-mouse immunoglobulin. For immunoperoxidase staining, endogenous peroxidase was blocked by 3% v/v H2O2 in methanol for 8 mins and, prior to addition of primary antibody, non-specific protein binding was blocked by incubation for at least 30 mins in MTPBS containing 2% w/v BSA or 2% v/v normal rabbit serum. Controls were performed by replacing primary antibody with pre-immune serum from the appropriate species. Tissue sections or cells were incubated with primary antibodies for 90 min RT, followed by three thorough washes with MTPBS. For immunoperoxidase staining, horseradish peroxidase-conjugated rabbit anti-guinea pig, swine anti-rabbit or rabbit anti-mouse immunoglobulins (Dako) diluted 1:80 were added for 30 mins at RT followed by thorough washes; colour was developed with 3,3′-diaminobenzidine/H2O2 for 4-8 mins and slides counterstained with haematoxylin.\n(§5) A pancreatic cell colony was defined as a spherical collection of 20 cells. Colonies were counted under a×10 power objective with an eyepiece graticule."}
{"molecule": "B5", "proliferation or colony formation, candidate growth factors individually": "unable to promote proliferation or colony formation"}
{"molecule": "B6", "proliferation or colony formation, candidate growth factors individually": "unable to promote proliferation or colony formation"}
{"test_system": "13.5 dpc fetal mouse pancreas cells", "assay": "Colony formation of 13.5 dpc fetal mouse pancreas cells cultured with BMPs and laminin-1", "format": "cell-based", "conditions": "in the presence (but not absence) of laminin-1, four days culture", "method": "as §3, §4, §5"}
{"molecule": "B7", "proliferation and colony formation of fetal pancreas cells": "stimulated fetal pancreas cells to proliferate and form colonies"}
{"molecule": "B2", "proliferation and colony formation of fetal pancreas cells": "did not promote colony formation"}
{"molecule": "B1", "proliferation and colony formation of fetal pancreas cells": "stimulated fetal pancreas cells to proliferate and form colonies"}
{"molecule": "B3", "proliferation and colony formation of fetal pancreas cells": "did not promote colony formation"}
{"molecule": "B4", "proliferation and colony formation of fetal pancreas cells": "stimulated fetal pancreas cells to proliferate and form colonies"}
